Here are results for 3 substances from article PMC4691841.

pKd: −log10 of the molar value. A value given as a limit tells only on which side of the number the result lay.

Targets include H3(1-10)R2me2a peptide (UniProt P68431); H3(1-15)K4me3 peptide (UniProt P68431); H3(1-15)T3ph peptide (UniProt P68431); histone H3(1-10) peptide (UniProt P68431).
Holding throughout (test): ITC
On the technique in general: Isothermal titration calorimetry measures the heat released or taken up as one component is titrated into another.

UHRF1 PHD finger (PHD_(UHRF1)), sequence (Q96T88 298-367): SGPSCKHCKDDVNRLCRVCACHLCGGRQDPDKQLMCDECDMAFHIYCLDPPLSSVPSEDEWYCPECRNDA

What is called pKd is the Kd on a negative log10 scale, so that one unit is a factor of ten. Read a low pKd as a high Kd. “UHRF1 PHD finger (PHD_(UHRF1)) (from UniProt Q96T88-2 311-380) (domain or fragment)”: the negative logarithm of the Kd (pKd) was 4.35 with H3(1-10)R2me2a peptide, 5.14 in the test with H3(1-15)K4me3 peptide and below 3.30 in the test with H3(1-15)T3ph peptide.

“PHD_(UHRF1) D350A mutant (from UniProt Q96T88-2 311-380) (domain or fragment)”: the pKd in the test with histone H3(1-10) peptide is 4.33.

“PHD_(UHRF1) D347A mutant (from UniProt Q96T88-2 311-380) (domain or fragment)” had a pKd in the test with histone H3(1-10) peptide of 4.02.
